In PMC5770421 (2018) one finds koff and Kd data, which are given here for 1 molecule.

Experiment in all cases: BLI
In general terms: In BLI a coated tip is dipped into the sample, and binding shifts an interference pattern.

Experiment [1] concerns the target T1, H4K12ac (Saccharomyces cerevisiae, acetyl-Lys12 (mature numbering; K13 in UniProt); biotinylated. Limits 1-21 from the pull-down methods; the BLItz peptide is 1-20. Peptide species not given; a commercial vertebrate peptide would …).
The target of experiment [2] is T2, H4K5ac (Saccharomyces cerevisiae, acetyl-Lys5 (mature numbering; K6 in UniProt); biotinylated. Limits 1-21 from the pull-down methods; the BLItz peptide is 1-20. Peptide species not given; a commercial vertebrate peptide would have …).
Experiment [3] concerns the target T3, H4K8ac (Saccharomyces cerevisiae, acetyl-Lys8 (mature numbering; K9 in UniProt); biotinylated. Limits 1-21 from the pull-down methods; the BLItz peptide is 1-20. Peptide species not given; a commercial vertebrate peptide would have …).
Experiment [4] addresses T1, H4K12ac. The source holds these as a separate data set.
The target in experiment [5] is T2, H4K5ac. This is another data set of the same source.
The target of experiment [6] is T3, H4K8ac. This is another data set of the same source.

T3 sequence (main, as listed by the source): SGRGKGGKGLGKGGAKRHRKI

B1: Dot1p (disruptor of telomeric silencing-1), MBP tag removed (enzyme)
chain: MGGQESISNNNSDSFIMSSPNLDSQESSISPIDEKKGTDMQTKSLSSYSKGTLLSKQVQNLLEEANKYDPIYGSSLPRGFLRDRNTKGKDNGLVPLVEKVIPPIHKKTNNRNTRKKSSTTTKKDVKKPKAAKVKGKNGRTNHKHTPISKQEIDTAREKKPLKKGRANKKNDRDSPSSTFVDWNGPCLRLQYPLFDIEYLRSHEIYSGTPIQSISLRTNSPQPTSLTSDNDTSSVTTAKLQSILFSNYMEEYKVDFKRSTAIYNPMSEIGKLIEYSCLVFLPSPYAEQLKETILPDLNASFDNSDTKGFVNAINLYNKMIREIPRQRIIDHLETIDKIPRSFIHDFLHIVYTRSIHPQANKLKHYKAFSNYVYGELLPNFLSDVYQQCQLKKGDTFMDLGSGVGNCVVQAALECGCALSFGCEIMDDASDLTILQYEELKKRCKLYGMRLNNVEFSLKKSFVDNNRVAELIPQCDVILVNNFLFDEDLNKKVEKILQTAKVGCKIISLKSLRSLTYQINFYNVENIFNRLKVQRYDLKEDSVSWTHSGGEYYISTVMEDVDESLFSPAARGRRNRGTPVKYTR
The term koff denotes the rate constant with which the complex falls apart. The Kd is a measure of binding affinity in units of concentration. Turning to B1, the figures for the koff in the experiment with H4K12ac [1], with H4K5ac [2] and in the experiment with H4K8ac [3] were 0.00302 s⁻¹, 0.00317 s⁻¹ and 0.00237 s⁻¹, respectively. Also, the Kd in the experiment with H4K12ac [4] came out at 23.3 nM; with H4K5ac [5], 20.1 nM; with H4K8ac [6], 19.6 nM.
